The values below come from US20140219978A1 (published 2014).

Experiment [1] concerns the target none (gp100-negative cells) peptide on HLA-A2 (human). The experiment in a line: RNA-electroporated human PBL with HLA-A2+ gp100-negative melanoma A375; 31 pg/ml for transduced PBL in Table 7; text: did not recognize melanoma cell lines not expressing gp100; full-length, on cells. The following applies: chains Valpha:Vbeta.
Experiment [2] deals with T1, gp100 peptide on HLA-A*02:01 (human).
T1 peptide: ITDQVPFSV
Nature of the experiment: multimer staining.

B1: Sp(0.01)A TCR (TCR, V domains shown)
Valpha: QQKVQQSPESLIVPEGAMTSLNCTFSDSASQYFAWYRQHSGKAPKALMSIFSNGEKEEGRFTIHLNKASLHFSLHIRDSQPSDSALYLCAANNYAQGLTFGLGTRVSVFP
Vbeta: EAAVTQSPRSKVAVTGGKVTLSCHQTNNHDYMYWYRQDTGHGLRLIHYSYVADSTEKGDIPDGYKASRPSQENFSLILELASLSQTAVYFCASSPGGGGEQYFGPGTRLTVL
In experiment [1], B1 came in with an IFN-gamma release of 45 pg/mL. The binding result in experiment [2] is “no recognition”.
